Test results as given in US12679878B2, “CRF2 receptor agonists and their use in therapy” (SANOFI, priority 2020, dated 2026).
Starred links: 1 amine or outer side, 2 acyl side, 3 side chain; linkers in the order of their positions; H or OH if unused. Non-standard residues stand in square brackets, D forms with d. Groups on a side chain read outwards from the residue. No end group written: not given here. *: point of attachment. C18 diacid = O=C(O)CCCCCCCCCCCCCCCCC(=O)*; γGlu = O=C(O)[C@H](CCC(=O)[*:2])N[*:1]; AEEA = NCCOCCOCC(=O)O; Aib = CC(C)(N)C(=O)O

T1: CRF1R receptor (anti-target) (UniProt P34998 24-415, limits assumed)
T1 sequence (looked up): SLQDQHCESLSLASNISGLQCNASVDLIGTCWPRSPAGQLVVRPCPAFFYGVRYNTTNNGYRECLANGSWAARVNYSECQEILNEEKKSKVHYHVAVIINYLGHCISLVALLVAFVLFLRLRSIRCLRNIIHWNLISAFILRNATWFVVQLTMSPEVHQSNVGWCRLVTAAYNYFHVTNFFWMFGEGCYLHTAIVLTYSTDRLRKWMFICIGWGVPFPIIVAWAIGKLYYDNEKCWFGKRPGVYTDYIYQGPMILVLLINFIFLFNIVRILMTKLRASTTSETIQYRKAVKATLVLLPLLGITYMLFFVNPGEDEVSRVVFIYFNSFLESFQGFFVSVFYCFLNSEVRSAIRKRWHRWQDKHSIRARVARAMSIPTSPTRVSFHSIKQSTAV

B1: peptide of SEQ ID NO: 156 (peptide)
peptide: IVLSLDVPIGLK([AEEA-AEEA-γGlu-C18 diacid])QILLKQERQKK[Aib]REQAETNAQILAQV-NH2
modifications: N-terminus assumed
SMILES: CC[C@H](C)[C@H](N)C(=O)N[C@H](C(=O)N[C@@H](CC(C)C)C(=O)N[C@@H](CO)C(=O)N[C@@H](CC(C)C)C(=O)N[C@@H](CC(=O)O)C(=O)N[C@H](C(=O)N1CCC[C@H]1C(=O)N[C@H](C(=O)NCC(=O)N[C@@H](CC(C)C)C(=O)N[C@@H](CCCCNC(=O)COCCOCCNC(=O)COCCOCCNC(=O)CC[C@H](NC(=O)CCCCCCCCCCCCCCCCC(=O)O)C(=O)O)C(=O)N[C@@H](CCC(N)=O)C(=O)N[C@H](C(=O)N[C@@H](CC(C)C)C(=O)N[C@@H](CC(C)C)C(=O)N[C@@H](CCCCN)C(=O)N[C@@H](CCC(N)=O)C(=O)N[C@@H](CCC(=O)O)C(=O)N[C@@H](CCCNC(=N)N)C(=O)N[C@@H](CCC(N)=O)C(=O)N[C@@H](CCCCN)C(=O)N[C@@H](CCCCN)C(=O)NC(C)(C)C(=O)N[C@@H](CCCNC(=N)N)C(=O)N[C@@H](CCC(=O)O)C(=O)N[C@@H](CCC(N)=O)C(=O)N[C@@H](C)C(=O)N[C@@H](CCC(=O)O)C(=O)N[C@H](C(=O)N[C@@H](CC(N)=O)C(=O)N[C@@H](C)C(=O)N[C@@H](CCC(N)=O)C(=O)N[C@H](C(=O)N[C@@H](CC(C)C)C(=O)N[C@@H](C)C(=O)N[C@@H](CCC(N)=O)C(=O)N[C@H](C(N)=O)C(C)C)[C@@H](C)CC)[C@@H](C)O)[C@@H](C)CC)[C@@H](C)CC)C(C)C)C(C)C
B2: peptide of SEQ ID NO: 152 (peptide)
peptide: IVLSLDVPIKLK([AEEA-AEEA-γGlu-C18 diacid])QILLKQERQKK[Aib]REQAETNKRILERV-NH2
modifications: N-terminus assumed
SMILES: CC[C@H](C)[C@H](N)C(=O)N[C@H](C(=O)N[C@@H](CC(C)C)C(=O)N[C@@H](CO)C(=O)N[C@@H](CC(C)C)C(=O)N[C@@H](CC(=O)O)C(=O)N[C@H](C(=O)N1CCC[C@H]1C(=O)N[C@H](C(=O)N[C@@H](CCCCN)C(=O)N[C@@H](CC(C)C)C(=O)N[C@@H](CCCCNC(=O)COCCOCCNC(=O)COCCOCCNC(=O)CC[C@H](NC(=O)CCCCCCCCCCCCCCCCC(=O)O)C(=O)O)C(=O)N[C@@H](CCC(N)=O)C(=O)N[C@H](C(=O)N[C@@H](CC(C)C)C(=O)N[C@@H](CC(C)C)C(=O)N[C@@H](CCCCN)C(=O)N[C@@H](CCC(N)=O)C(=O)N[C@@H](CCC(=O)O)C(=O)N[C@@H](CCCNC(=N)N)C(=O)N[C@@H](CCC(N)=O)C(=O)N[C@@H](CCCCN)C(=O)N[C@@H](CCCCN)C(=O)NC(C)(C)C(=O)N[C@@H](CCCNC(=N)N)C(=O)N[C@@H](CCC(=O)O)C(=O)N[C@@H](CCC(N)=O)C(=O)N[C@@H](C)C(=O)N[C@@H](CCC(=O)O)C(=O)N[C@H](C(=O)N[C@@H](CC(N)=O)C(=O)N[C@@H](CCCCN)C(=O)N[C@@H](CCCNC(=N)N)C(=O)N[C@H](C(=O)N[C@@H](CC(C)C)C(=O)N[C@@H](CCC(=O)O)C(=O)N[C@@H](CCCNC(=N)N)C(=O)N[C@H](C(N)=O)C(C)C)[C@@H](C)CC)[C@@H](C)O)[C@@H](C)CC)[C@@H](C)CC)C(C)C)C(C)C
B3: peptide of SEQ ID NO: 148 (peptide)
peptide: IVLSLDVPIGLK([AEEA-AEEA-γGlu-C18 diacid])QILLKQERQKK[Aib]REQAETNKRILERV-NH2
modifications: N-terminus assumed
SMILES: CC[C@H](C)[C@H](N)C(=O)N[C@H](C(=O)N[C@@H](CC(C)C)C(=O)N[C@@H](CO)C(=O)N[C@@H](CC(C)C)C(=O)N[C@@H](CC(=O)O)C(=O)N[C@H](C(=O)N1CCC[C@H]1C(=O)N[C@H](C(=O)NCC(=O)N[C@@H](CC(C)C)C(=O)N[C@@H](CCCCNC(=O)COCCOCCNC(=O)COCCOCCNC(=O)CC[C@H](NC(=O)CCCCCCCCCCCCCCCCC(=O)O)C(=O)O)C(=O)N[C@@H](CCC(N)=O)C(=O)N[C@H](C(=O)N[C@@H](CC(C)C)C(=O)N[C@@H](CC(C)C)C(=O)N[C@@H](CCCCN)C(=O)N[C@@H](CCC(N)=O)C(=O)N[C@@H](CCC(=O)O)C(=O)N[C@@H](CCCNC(=N)N)C(=O)N[C@@H](CCC(N)=O)C(=O)N[C@@H](CCCCN)C(=O)N[C@@H](CCCCN)C(=O)NC(C)(C)C(=O)N[C@@H](CCCNC(=N)N)C(=O)N[C@@H](CCC(=O)O)C(=O)N[C@@H](CCC(N)=O)C(=O)N[C@@H](C)C(=O)N[C@@H](CCC(=O)O)C(=O)N[C@H](C(=O)N[C@@H](CC(N)=O)C(=O)N[C@@H](CCCCN)C(=O)N[C@@H](CCCNC(=N)N)C(=O)N[C@H](C(=O)N[C@@H](CC(C)C)C(=O)N[C@@H](CCC(=O)O)C(=O)N[C@@H](CCCNC(=N)N)C(=O)N[C@H](C(N)=O)C(C)C)[C@@H](C)CC)[C@@H](C)O)[C@@H](C)CC)[C@@H](C)CC)C(C)C)C(C)C
B4: peptide of SEQ ID NO: 134 (peptide)
peptide: IVLSLD[dV]PIKLK([AEEA-AEEA-γGlu-C18 diacid])QILLKQERQK[Aib]QREKAEKNKQILAQV-NH2
modifications: N-terminus assumed
SMILES: CC[C@H](C)[C@H](N)C(=O)N[C@H](C(=O)N[C@@H](CC(C)C)C(=O)N[C@@H](CO)C(=O)N[C@@H](CC(C)C)C(=O)N[C@@H](CC(=O)O)C(=O)N[C@@H](C(=O)N1CCC[C@H]1C(=O)N[C@H](C(=O)N[C@@H](CCCCN)C(=O)N[C@@H](CC(C)C)C(=O)N[C@@H](CCCCNC(=O)COCCOCCNC(=O)COCCOCCNC(=O)CC[C@H](NC(=O)CCCCCCCCCCCCCCCCC(=O)O)C(=O)O)C(=O)N[C@@H](CCC(N)=O)C(=O)N[C@H](C(=O)N[C@@H](CC(C)C)C(=O)N[C@@H](CC(C)C)C(=O)N[C@@H](CCCCN)C(=O)N[C@@H](CCC(N)=O)C(=O)N[C@@H](CCC(=O)O)C(=O)N[C@@H](CCCNC(=N)N)C(=O)N[C@@H](CCC(N)=O)C(=O)N[C@@H](CCCCN)C(=O)NC(C)(C)C(=O)N[C@@H](CCC(N)=O)C(=O)N[C@@H](CCCNC(=N)N)C(=O)N[C@@H](CCC(=O)O)C(=O)N[C@@H](CCCCN)C(=O)N[C@@H](C)C(=O)N[C@@H](CCC(=O)O)C(=O)N[C@@H](CCCCN)C(=O)N[C@@H](CC(N)=O)C(=O)N[C@@H](CCCCN)C(=O)N[C@@H](CCC(N)=O)C(=O)N[C@H](C(=O)N[C@@H](CC(C)C)C(=O)N[C@@H](C)C(=O)N[C@@H](CCC(N)=O)C(=O)N[C@H](C(N)=O)C(C)C)[C@@H](C)CC)[C@@H](C)CC)[C@@H](C)CC)C(C)C)C(C)C
B5: peptide of SEQ ID NO: 150 (peptide)
peptide: IVLSLD[dV]PIGLK([AEEA-AEEA-γGlu-C18 diacid])QILLKQERQKK[Aib]RQQAETNKRILERV-NH2
modifications: N-terminus assumed
SMILES: CC[C@H](C)[C@H](N)C(=O)N[C@H](C(=O)N[C@@H](CC(C)C)C(=O)N[C@@H](CO)C(=O)N[C@@H](CC(C)C)C(=O)N[C@@H](CC(=O)O)C(=O)N[C@@H](C(=O)N1CCC[C@H]1C(=O)N[C@H](C(=O)NCC(=O)N[C@@H](CC(C)C)C(=O)N[C@@H](CCCCNC(=O)COCCOCCNC(=O)COCCOCCNC(=O)CC[C@H](NC(=O)CCCCCCCCCCCCCCCCC(=O)O)C(=O)O)C(=O)N[C@@H](CCC(N)=O)C(=O)N[C@H](C(=O)N[C@@H](CC(C)C)C(=O)N[C@@H](CC(C)C)C(=O)N[C@@H](CCCCN)C(=O)N[C@@H](CCC(N)=O)C(=O)N[C@@H](CCC(=O)O)C(=O)N[C@@H](CCCNC(=N)N)C(=O)N[C@@H](CCC(N)=O)C(=O)N[C@@H](CCCCN)C(=O)N[C@@H](CCCCN)C(=O)NC(C)(C)C(=O)N[C@@H](CCCNC(=N)N)C(=O)N[C@@H](CCC(N)=O)C(=O)N[C@@H](CCC(N)=O)C(=O)N[C@@H](C)C(=O)N[C@@H](CCC(=O)O)C(=O)N[C@H](C(=O)N[C@@H](CC(N)=O)C(=O)N[C@@H](CCCCN)C(=O)N[C@@H](CCCNC(=N)N)C(=O)N[C@H](C(=O)N[C@@H](CC(C)C)C(=O)N[C@@H](CCC(=O)O)C(=O)N[C@@H](CCCNC(=N)N)C(=O)N[C@H](C(N)=O)C(C)C)[C@@H](C)CC)[C@@H](C)O)[C@@H](C)CC)[C@@H](C)CC)C(C)C)C(C)C
B6: peptide of SEQ ID NO: 149 (peptide)
peptide: IVLSLD[dV]PIKLK([AEEA-AEEA-γGlu-C18 diacid])QILLKQERQKK[Aib]REQAETNKRILERV-NH2
modifications: N-terminus assumed
SMILES: CC[C@H](C)[C@H](N)C(=O)N[C@H](C(=O)N[C@@H](CC(C)C)C(=O)N[C@@H](CO)C(=O)N[C@@H](CC(C)C)C(=O)N[C@@H](CC(=O)O)C(=O)N[C@@H](C(=O)N1CCC[C@H]1C(=O)N[C@H](C(=O)N[C@@H](CCCCN)C(=O)N[C@@H](CC(C)C)C(=O)N[C@@H](CCCCNC(=O)COCCOCCNC(=O)COCCOCCNC(=O)CC[C@H](NC(=O)CCCCCCCCCCCCCCCCC(=O)O)C(=O)O)C(=O)N[C@@H](CCC(N)=O)C(=O)N[C@H](C(=O)N[C@@H](CC(C)C)C(=O)N[C@@H](CC(C)C)C(=O)N[C@@H](CCCCN)C(=O)N[C@@H](CCC(N)=O)C(=O)N[C@@H](CCC(=O)O)C(=O)N[C@@H](CCCNC(=N)N)C(=O)N[C@@H](CCC(N)=O)C(=O)N[C@@H](CCCCN)C(=O)N[C@@H](CCCCN)C(=O)NC(C)(C)C(=O)N[C@@H](CCCNC(=N)N)C(=O)N[C@@H](CCC(=O)O)C(=O)N[C@@H](CCC(N)=O)C(=O)N[C@@H](C)C(=O)N[C@@H](CCC(=O)O)C(=O)N[C@H](C(=O)N[C@@H](CC(N)=O)C(=O)N[C@@H](CCCCN)C(=O)N[C@@H](CCCNC(=N)N)C(=O)N[C@H](C(=O)N[C@@H](CC(C)C)C(=O)N[C@@H](CCC(=O)O)C(=O)N[C@@H](CCCNC(=N)N)C(=O)N[C@H](C(N)=O)C(C)C)[C@@H](C)CC)[C@@H](C)O)[C@@H](C)CC)[C@@H](C)CC)C(C)C)C(C)C

The binders below were run against T1, CRF1R receptor (anti-target) (assay: cell-based or functional assay).

| EC50 [nM] 0% HSA (cAMP, HTRF) | Emax (%) (100% = Sauvagine at 100 nM) | Binder |
| --- | --- | --- |
| > 100 nM | 4% | B1 |
| > 100 nM | 4.9% | B2 |
| > 100 nM | 2.6% | B3 |
| > 100 nM | -8.6% | B4 |
| > 100 nM | 7.2% | B5 |
| > 100 nM | 6.6% | B6 |
